Data on one molecule can be found in US20210355235A1, “Compositions and Methods For Treating Cancer with Anti-Renalase antibodies and Anti-PD1 antibodies” (YALE UNIVERSITY, priority 2017, published 2021).

What all share (type): cell-based, human
In assay [1] the test system is A375.S2, MeWo, SkMel5 and SkMel28 cells. The assay is described as follows: survival of serum-starved melanoma cells, WST-1. The settings on record: 30 ug/ml, 72 hrs. The procedure: Total cell number and percentage of live cells were assessed by trypan blue exclusion, and cells were counted using a BioRad TC10 automated cell counter. For additional studies, cell viability was determined using WST-1 reagent (Roche Diagnostics, Indianapolis, Ind., USA) according to the manufacturers' instruction. Absorbances were read using a microplate reader (Power Waves XS, BioTek Instruments, Winooski, Vt., USA).
RNLS-mediated signaling is anti-apoptotic, and protects normal cells exposed to toxic stress from apoptotic death (Wang et al., 2014 J Am Soc Nephrol.; Lee et al., 2013 J Am Soc Nephrol. 24:445-55). To explore if RNLS signaling favored the survival of cancer cells, either recombinant RNLS (rRNLS) or bovine serum albumin (BSA) was added to serum-starved melanoma cells (A375.S2, MeWo, SkMel5, and SkMel28) in culture, and cell viability was determined. […] The total cell number and percentage of live cells of those treated with RNLS were counted to determine if the apparent increase in proliferative rate was due an increase in cell proliferation or to a decrease in the rate of apoptosis.
For orientation: Tetrazolium dyes change colour on reduction, which living cells bring about.

In assay [2] the test system is MiaPaCa2 cells. The assay can be described thus: FACS cell cycle analysis with rRNLS. The settings on record: 30 μg/ml. As to the method: For cell cycle analysis, cultured cells were dissociated using 10 mM EDTA, fixed with ice-cold 70% ethanol, digested with RNAse A, and stained with propidium iodide. Propidium staining was detected using a BD FACSCalibur flow cytometer (BD Biosciences, San Jose, Calif., USA), and analyzed using CellQuest software.

The test system of assay [3] is Panc1 cells. The assay is described as follows: western blot of p38 and STAT3 phosphorylation. The text has this: FIG. 27, comprising FIGS. 27A through 27E, is a series of images and charts showing the interaction between RNLS and STAT3, and the mechanistic model of inhibition by m28-RNLS. FIG. 27A is an image showing activation of STAT3 by RNLS in Panc1 cells; Panc1 cells in culture treated with either BSA or RNLS, and STAT3 phosphorylation assessed by western blot; p-Ser^727-STAT3: phosphorylation at serine 727, p-Y^705-STAT3: phosphorylation at tyrosine 705; representative study. FIG. 27B is a chart depicting the quantification of STAT3 phosphorylation with RNLS; signals normalized to total STAT3; n=3, *=P<0.05. […] FIG. 27D is a chart showing the quantification of STAT3 phosphorylation with m28-RNLS; signals normalized to GAPDH loading control; n=3, *=P<0.05. FIG. 27E depicts the proposed mechanistic model for antitumor activity of m28-RNLS.

Assay [4] concerns HK-2 cells. The assay can be described thus: STAT phosphorylation in HK-2 cells treated with RNLS. The text has this: STAT3 binds to the promoter region of the RNLS gene and increases its expression (Sonawane et al., 2014 Biochemistry. 53(44):6878-6892).

B1: rRNLS: recombinant human RNLS (renalase) (protein, UniProt Q5VYX0 18-342, looked up)
Renalase: ALLRRQTSGPLYLAVWDKAEDSGGRMTTACSPHNPQCTADLGAQYITCTPHYAKKHQRFYDELLAYGVLRPLSSPIEGMVMKEGDCNFVAPQGISSIIKHYLKESGAEVYFRHRVTQINLRDDKWEVSKQTGSPEQFDLIVLTMPVPEILQLQGDITTLISECQRQQLEAVSYSSRYALGLFYEAGTKIDVPWAGQYITSNPCIRFVSIDNKKRNIESSEIGPSLVIHTTVPFGVTYLEHSIEDVQELVFQQLENILPGLPQPIATKCQKWRHSQVTNAAANCPGQMTLHHKPFLACGGDGFTQSNFDGCITSALCVLEALKNYI
Turning to B1, the “survival of serum-starved melanoma cells compared to BSA” value in assay [1] is reported as “markedly increased the survival”. The “cell cycle progression compared to BSA” value in assay [2] was “no effect on cell cycle progression”. Moreover, the “phosphorylated STAT3 (p-Ser727-STAT3 and p-Y705-STAT3) after RNLS” value in assay [3] is “rapid increase”. Besides, in assay [4], the STAT1 result is given as “unaffected”, the “increase of STAT3 phosphorylation at serine 727 (p-Ser727-STAT3)” value is recorded as 2 fold and the “increase of STAT3 phosphorylation at tyrosine 705 (p-Y705-STAT3)” value was determined as 4 fold.
